Sequences and labels used below:
T1: human IQGAP2 GRD2 (aa 875-1246) (human, UniProt Q13576 875-1246)
T1 construct: source: E. coli, purified (glutathione Sepharose), GST cleaved with thrombin; not shown: GST, N-terminal, cleaved
T1 sequence (looked up): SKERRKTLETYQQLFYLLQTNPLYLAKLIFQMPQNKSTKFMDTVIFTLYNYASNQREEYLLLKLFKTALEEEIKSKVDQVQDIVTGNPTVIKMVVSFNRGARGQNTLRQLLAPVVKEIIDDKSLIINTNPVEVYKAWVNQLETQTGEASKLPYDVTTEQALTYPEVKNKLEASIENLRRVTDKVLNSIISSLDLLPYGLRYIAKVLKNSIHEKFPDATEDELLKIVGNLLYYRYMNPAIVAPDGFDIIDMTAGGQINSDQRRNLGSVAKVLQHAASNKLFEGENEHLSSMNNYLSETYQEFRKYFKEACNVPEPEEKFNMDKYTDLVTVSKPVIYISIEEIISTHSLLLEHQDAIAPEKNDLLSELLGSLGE

B1: human CDC42 (aa 1-178), wild type (natural protein)
chain: not shown
notes: Loaded with mant-GppNHp or mant-GDP (fluorescence assays) or GppNHp (SEC); also called CDC42 WT; CDC42^wt; source: E. coli, purified (glutathione Sepharose), GST cleaved with thrombin; not shown: GST, N-terminal, cleaved
B2: human IQGAP2 C795 (aa 780-1575) (domain or fragment, UniProt Q13576 780-1575, looked up)
chain: PLTVIRKFVYLLDQSDLDFQEELEVARLREEVVTKIRANQQLEKDLNLMDIKIGLLVKNRITLEDVISHSKKLNKKKGGEMEILNNTDNQGIKSLSKERRKTLETYQQLFYLLQTNPLYLAKLIFQMPQNKSTKFMDTVIFTLYNYASNQREEYLLLKLFKTALEEEIKSKVDQVQDIVTGNPTVIKMVVSFNRGARGQNTLRQLLAPVVKEIIDDKSLIINTNPVEVYKAWVNQLETQTGEASKLPYDVTTEQALTYPEVKNKLEASIENLRRVTDKVLNSIISSLDLLPYGLRYIAKVLKNSIHEKFPDATEDELLKIVGNLLYYRYMNPAIVAPDGFDIIDMTAGGQINSDQRRNLGSVAKVLQHAASNKLFEGENEHLSSMNNYLSETYQEFRKYFKEACNVPEPEEKFNMDKYTDLVTVSKPVIYISIEEIISTHSLLLEHQDAIAPEKNDLLSELLGSLGEVPTVESFLGEGAVDPNDPNKANTLSQLSKTEISLVLTSKYDIEDGEAIDSRSLMIKTKKLIIDVIRNQPGNTLTEILETPATAQQEVDHATDMVSRAMIDSRTPEEMKHSQSMIEDAQLPLEQKKRKIQRNLRTLEQTGHVSSENKYQDILNEIAKDIRNQRIYRKLRKAELAKLQQTLNALNKKAAFYEEQINYYDTYIKTCLDNLKRKNTRRSIKLDGKGEPKGAKRAKPVKYTAAKLHEKGVLLDIDDLQTNQFKNVTFDIIATEDVGIFDVRSKFLGVEMEKVQLNIQDLLQMQYEGVAVMKMFDKVKVNVNLLIYLLNKKFYGK
notes: source: E. coli, purified (glutathione Sepharose), GST cleaved with thrombin; not shown: GST, N-terminal, cleaved
B3: human IQGAP1 GRD1 (aa 962-1345) (domain or fragment, UniProt P46940 962-1345, looked up)
chain: SKEKREKLEAYQHLFYLLQTNPTYLAKLIFQMPQNKSTKFMDSVIFTLYNYASNQREEYLLLRLFKTALQEEIKSKVDQIQEIVTGNPTVIKMVVSFNRGARGQNALRQILAPVVKEIMDDKSLNIKTDPVDIYKSWVNQMESQTGEASKLPYDVTPEQALAHEEVKTRLDSSIRNMRAVTDKFLSAIVSSVDKIPYGMRFIAKVLKDSLHEKFPDAGEDELLKIIGNLLYYRYMNPAIVAPDAFDIIDLSAGGQLTTDQRRNLGSIAKMLQHAASNKMFLGDNAHLSIINEYLSQSYQKFRRFFQTACDVPELQDKFNVDEYSDLVTLTKPVIYISIGEIINTHTLLLDHQDAIAPEHNDPIHELLDDLGEVPTIESLIGESS
notes: as for B2
B4: human CDC42 (aa 1-178) Q61L (natural protein)
chain: not shown
notes: also called CDC42^Q61L; CDC42(Q61L); source: E. coli, purified (glutathione Sepharose), GST cleaved with thrombin; not shown: GST, N-terminal, cleaved
B5: human IQGAP1 C794 (aa 863-1657) (domain or fragment, UniProt P46940 863-1657, looked up)
chain: DPPMVVVRKFVHLLDQSDQDFQEELDLMKMREEVITLIRSNQQLENDLNLMDIKIGLLVKNKITLQDVVSHSKKLTKKNKEQLSDMMMINKQKGGLKALSKEKREKLEAYQHLFYLLQTNPTYLAKLIFQMPQNKSTKFMDSVIFTLYNYASNQREEYLLLRLFKTALQEEIKSKVDQIQEIVTGNPTVIKMVVSFNRGARGQNALRQILAPVVKEIMDDKSLNIKTDPVDIYKSWVNQMESQTGEASKLPYDVTPEQALAHEEVKTRLDSSIRNMRAVTDKFLSAIVSSVDKIPYGMRFIAKVLKDSLHEKFPDAGEDELLKIIGNLLYYRYMNPAIVAPDAFDIIDLSAGGQLTTDQRRNLGSIAKMLQHAASNKMFLGDNAHLSIINEYLSQSYQKFRRFFQTACDVPELQDKFNVDEYSDLVTLTKPVIYISIGEIINTHTLLLDHQDAIAPEHNDPIHELLDDLGEVPTIESLIGESSGNLNDPNKEALAKTEVSLTLTNKFDVPGDENAEMDARTILLNTKRLIVDVIRFQPGETLTEILETPATSEQEAEHQRAMQRRAIRDAKTPDKMKKSKSVKEDSNLTLQEKKEKIQTGLKKLTELGTVDPKNKYQELINDIARDIRNQRRYRQRRKAELVKLQQTYAALNSKATFYGEQVDYYKSYIKTCLDNLASKGKVSKKPREMKGKKSKKISLKYTAARLHEKGVLLEIEDLQVNQFKNVIFEISPTEEVGDFEVKAKFMGVQMETFMLHYQDLLQLQYEGVAVMKLFDRAKVNVNLLIFLLNKKFYGK
notes: as for B2

What all share (conditions): both partners purified
Experiment [1] concerns the target B2. The experiment in a line: fluorescence polarisation; 1 µM mant-GppNHp-bound CDC42 in the cuvette, IQGAP protein titrated; quadratic ligand binding equation.
The target in experiment [2] is B3. The description is as above.
Experiment [3] has as its target T1, human IQGAP2 GRD2 (aa 875-1246). Described as above.
Experiment [4] addresses B5. Described as above.
The target of experiment [5] is B1. Put plainly: fluorescence polarisation; 1 µM mant-GDP-bound CDC42 in the cuvette, IQGAP protein titrated; quadratic ligand binding equation.
Experiment [6] deals with B4. The experiment in a line: SEC; GppNHp-bound CDC42 mixed with IQGAP1 GRD1; Superdex 200 10/300, 30 mM Tris/HCl pH 7.5, 150 mM NaCl, 5 mM MgCl2; stoichiometry from calibrated elution volumes. A general note: SEC sorts molecules by how far they enter the pores of the column.
Experiment [7] concerns the target B1. Described as above.

Results on 5 molecules are retold here after PMC9408373, “CDC42-IQGAP Interactions Scrutinized: New Insights into the Binding Properties of the GAP-Related Domain” (International Journal of Molecular Sciences, 2022).

For B1, the Kd in experiment [1] turned out to be 900 nM; in experiment [2], 186000 nM; in experiment [3], 69000 nM; in experiment [4] it was 600 nM.
Turning to B2, the “fold higher affinity for mGppNHp-bound than for mGDP-bound CDC42” value in experiment [5] is around 100 fold.
Turning to B3, the results for the “stoichiometry N” value in experiment [6] and in experiment [7] were 2 ratio 2:1 as printed (which partner is the 2 is not told) and 1 GRD1 per CDC42 (2:2), respectively.
B4: the Kd in experiment [2] was 2700 nM; in experiment [3], 2500 nM.
Turning to B5, the “fold higher affinity for mGppNHp-bound than for mGDP-bound CDC42” value in experiment [5] was around 100 fold.

The term Kd denotes the constant that tells how readily two partners part at equilibrium. Low readings indicate tighter binding, high ones weaker binding. Broadly, the stoichiometry N is a count of units in the complex or per binding partner.
